# Experimental data published in patent US9523084B2, “Phosphodeoxyribosyl transferase mutant enzymes and uses thereof” (Centre National De La Recherche Scientifique, priority 2012, dated 2016).
# Changes are numbered by the printed parent chain. Names may count otherwise.
# T1: Lactobacillus leichmannii nucleoside deoxyribosyltransferase (NDT, SEQ ID NO:1) variant PDTT1, R13 G92 T93 S123 K157 (F13R/D92G/V93T/N123S/Y157K), SEQ ID NO:9 (Lactobacillus leichmannii, UniProt Q9R5V5, D92G/F13R/N123S/V93T/Y157K)
# T1 construct: homohexamer (108 kDa)
# T1 sequence (Q9R5V5 1-157 F13R/D92G/V93T/N123S/Y157K): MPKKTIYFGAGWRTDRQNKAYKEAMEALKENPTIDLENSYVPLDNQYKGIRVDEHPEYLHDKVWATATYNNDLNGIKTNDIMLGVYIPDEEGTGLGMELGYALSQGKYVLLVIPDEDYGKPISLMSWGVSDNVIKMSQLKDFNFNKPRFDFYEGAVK
# T2: Lactobacillus leichmannii nucleoside deoxyribosyltransferase (NDT, SEQ ID NO:1) variant PDTT2, R13 Q91 G92 T93 S123 (F13R/E91Q/D92G/V93T/N123S), SEQ ID NO:10 (Lactobacillus leichmannii, UniProt Q9R5V5, D92G/E91Q/F13R/N123S/V93T)
# T2 construct: made in house; host or cells: E. coli BLi5 (pET24a NDT plasmid)
# T2 sequence (Q9R5V5 2-157 F13R/E91Q/D92G/V93T/N123S): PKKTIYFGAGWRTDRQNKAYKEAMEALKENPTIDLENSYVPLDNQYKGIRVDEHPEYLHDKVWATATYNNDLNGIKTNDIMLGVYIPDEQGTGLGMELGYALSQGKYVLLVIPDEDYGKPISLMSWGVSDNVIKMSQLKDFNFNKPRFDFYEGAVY
# B1: Lactobacillus leichmannii nucleoside deoxyribosyltransferase (NDT, SEQ ID NO:1) variant PDTT1, R13 G92 T93 S123 K157 (F13R/D92G/V93T/N123S/Y157K), SEQ ID NO:9 … (protein)
# chain: T1 sequence (Q9R5V5 1-157 F13R/D92G/V93T/N123S/Y157K)
# notes: homohexamer (108 kDa)
# B2: PDTT6: PDTT4 mutant with Arginine at position 157, SEQ ID NO:43 (protein)
# chain: T1 sequence (Q9R5V5 1-157 F13R/D92G/V93T/N123S/Y157K) with E91Q, T93S, K157R
# modifications: amino acid sequence of PDTT6 (G92/S123/R13/S93/R157/Q91)
# B3: Lactobacillus leichmannii nucleoside deoxyribosyltransferase (NDT, SEQ ID NO:1) variant PDTT2, R13 Q91 G92 T93 S123 (F13R/E91Q/D92G/V93T/N123S), SEQ ID NO:10 … (protein)
# chain: T1 sequence (Q9R5V5 1-157 F13R/D92G/V93T/N123S/Y157K) with E91Q, K157Y
# notes: made in house; host or cells: E. coli BLi5 (pET24a NDT plasmid)
# B4: PDTT7: PDTT3b mutant with Arginine at position 157, SEQ ID NO:42 (protein)
# chain: T1 sequence (Q9R5V5 1-157 F13R/D92G/V93T/N123S/Y157K) with E91Q, T93G, K157R
# modifications: amino acid sequence of PDTT7 (G92/S123/R13/G93/R157/Q91)
# B5: Lactobacillus leichmannii nucleoside deoxyribosyltransferase (NDT, SEQ ID NO:1) variant PDTT2, R13 Q91 G92 T93 S123 (F13R/E91Q/D92G/V93T/N123S), SEQ ID NO:10 … (protein)
# chain: T2 sequence (Q9R5V5 2-157 F13R/E91Q/D92G/V93T/N123S)
# notes: as for B3
# What was measured:
# [1] = biological target: T1, Lactobacillus leichmannii nucleoside deoxyribosyltransferase (NDT, SEQ ID NO:1) variant PDTT1, R13 G92 T93 S123 K157 (F13R/D92G/V93T/N123S/Y157K), SEQ ID NO:9; test: Kinetic parameters of PDT variants with deoxycytidine 5'-mono, -di and -triphosphate as donors and adenine as acceptor; type: biochemical; details: adenine acceptor
# Description: (§1) The standard assay (“first protocol for enzyme assay”) for the different NDTs consisted of 5-15 μg of NDT in 50 mM MES buffer pH 6.0, dNxP (dNMP, or dNDP or dNTP) 3 mM and a base 1 mM in a total volume of 50 μL. Assays were incubated for 60 min at 37° C. The products of the reactions were analyzed each 7 min by Rapid resolution high performance liquid chromatography using a reverse-phase column (ZORBAX Eclipse XDB-C18 2.1*50 mm 1.8 μM) with a flow rate of 0.25 ml/min and a linear gradient of 1-12% CH3CN (2-25% CH3CN or 1-90% CH3CN) in 20 mM triethylammonium acetate, pH 7.5, buffer for 7 min. The low resolution mass spectra of the newly synthesized deoxyribonucleotides were obtained on an Agilent 1200 series LC/MS 6120 quadrupole system using an atmospheric electrospray ionization system.
# (§2) This hypothesis was confirmed by monitoring the specific activity, in the presence of dCDP or dCTP as donor and adenine as acceptor (see table 2 above). The kinetic parameters were determined for the best variants with dCMP, dCDP and dCTP as substrates, at a concentration of A being fixed (see table 3 below).
# [2] = biological target: T2, Lactobacillus leichmannii nucleoside deoxyribosyltransferase (NDT, SEQ ID NO:1) variant PDTT2, R13 Q91 G92 T93 S123 (F13R/E91Q/D92G/V93T/N123S), SEQ ID NO:10; test: as above; type: biochemical; details: adenine acceptor
# Description: as §1, §2
# [3] = substrate: Nc1ccn([C@H]2C[C@H](O)[C@@H](COP(=O)(O)O)O2)c(=O)n1; test: as above; type: biochemical, Lactobacillus leichmannii; details: 37.0 °C; for Km: adenine as acceptor, fixed
# Description: as §1, §2
# [4] = Catalytic activity of PDTT2 to PDTT7, dATP formed (HPLC); type: biochemical; details: dCTP + A ⇄ dATP + C; 2 mM dCTP, 1 mM Adenine, 37° C., MES 50 mM pH6.0
# Description: In specific cases, an alternative protocol was used to perform the enzyme assay. In this second protocol, the dNxP (dNMP, or dNDP or dNTP) concentration was of only 2 mM, instead of 3 mM. All of the other conditions were identical to those of the first protocol.
# The catalytic activity of the mutant enzymes PDTT2, PDTT3, PDTT3b, PDTT4, PDTT5, PDTT6, PDTT7 has been compared. Briefly, a sufficient amount of enzyme mutant necessary to obtain a linear reaction over a period of one hour at 37° C. has been mixed in 2 mM dCTP and 1 mM Adenine in a final volume of 50 μL of MES buffer 50 mM pH6.0. Assays were incubated for 60 min at 37° C. The products of the reactions were analyzed each 7 min by Rapid resolution high performance liquid chromatography using a reverse-phase column (ZORBAX Eclipse XDB-C18 2.1*50 mm […]) with a flow rate of 0.25 ml/min and a linear gradient of 1-12% CH3CN (2-25% CH3CN or 1-90% CH3CN) in 20 mM triethylammonium acetate, pH 7.5, buffer for 7 min.
# [5] = Spectrophotometric assay coupled to xanthine oxidase (2,8-dihydroxyadenine at 301 nm); type: biochemical; details: dATP + C ⇄ dCTP + A; 1 mM cytosine, 50 mM MES pH6.0, 37° C.
# Description: (§3) Further, the cinetic parameters of these mutant enzymes were analysed, using a specific spectrophotometric assay. Briefly, the assay consists in measuring the formation of the final product (2,8 dihydroxyadenine) of the reaction:
# (§4) Briefly, the assay was performed using the coupling of two enzymes: the variant (PDTT2, PDTT4, PDTT5, PDTT6, or PDTT7) to be tested and xanthine oxidase (obtained from Roche). The reaction mixture contained varying concentrations of dATP, 1 mM cytosine in a 50 mM MES buffer pH6.0 at 37° C. The reaction was initiated by adding 30 units of the purified variant to be tested and xanthine oxidase (Roche). The released adenine was then oxidized in 2,8-dihydroxyadenine which absorbs at 301 nm. The formation (i.e. concentration) of 2,8 dihydroxyadenine was measured by spectrophotometry.
# [6] = substrate: Nc1ncnc2c1ncn2[C@H]1C[C@H](O)[C@@H](COP(=O)(O)OP(=O)(O)OP(=O)(O)O)O1; test: Spectrophotometric assay coupled to xanthine oxidase, dATP + C ⇄ dCTP + A; type: biochemical; details: other: PDTT2, 1 mM cytosine, 50 mM MES pH6.0, 37° C., pH 6.0
# Description: as §3, §4
# [7] = substrate: Nc1ccn([C@H]2C[C@H](O)[C@@H](COP(=O)(O)O)O2)c(=O)n1; test: Kinetic parameters of PDT variants with deoxycytidine 5'-mono, -di and -triphosphate as donors and adenine as acceptor; type: biochemical; details: 37.0 °C; for Km: adenine as acceptor, fixed
# Description: as §1, §2
# [8] = substrate: Nc1ccn([C@H]2C[C@H](O)[C@@H](COP(=O)(O)OP(=O)(O)OP(=O)(O)O)O2)c(=O)n1; test: as above; type: biochemical; details: other: PDTT2; deoxyribose triphosphate transferase; 37.0 °C
# Description: as §1, §2
molecule,measurement,setting,value
Nc1ccn([C@H]2C[C@H](O)[C@@H](COP(=O)(O)O)O2)c(=O)n1 [dCMP],kcat,"[1]; PDTT1, second line of the table",0.08 s⁻¹
same,kcat,"[1]; PDTT1, third line of the table",0.5 s⁻¹
same,kcat,"[2]; PDTT2, second line of the table",0.1 s⁻¹
same,kcat,"[2]; PDTT2, third line of the table",1.3 s⁻¹
B1,kcat,"[3]; other: PDTT1, first line, adenine acceptor, molecular mass of 108 kDa",0.46 s⁻¹
same,Km,"[3]; other: PDTT1, first line",4.1 mM
same,Km,"[3]; other: PDTT1, second line of the table",8.9 mM
same,Km,"[3]; other: PDTT1, third line of the table",5.5 mM
B2,Catalytic activity (nmol of dATP formed/min/mg of enzyme protein),[4],18.6 nmol of dATP formed/min/mg of enzyme protein
same,Km,[5],0.5 mM
same,kcat,[5],10 s⁻¹
B3,Km,[6],6.1 mM
same,kcat,[6],12.6 s⁻¹
same,kcat/Km,[6],2000 M⁻¹ s⁻¹
B4,Catalytic activity (nmol of dATP formed/min/mg of enzyme protein),[4],17.9 nmol of dATP formed/min/mg of enzyme protein
same,Km,[5],2.6 mM
same,kcat,[5],10 s⁻¹
B5,kcat,"[7]; other: PDTT2, first line, adenine acceptor, molecular mass of 108 kDa",0.9 s⁻¹
same,Km,"[7]; other: PDTT2, first line",6 mM
same,Km,"[7]; other: PDTT2, second line of the table",8.7 mM
same,Km,"[7]; other: PDTT2, third line of the table",2 mM
same,Km,[8],2 mM
same,kcat/Km,[8],668 M⁻¹ s⁻¹
